Substrate in data set [1]: O=P(O)(O)OC1O[C@@H](CO)[C@@H](O)[C@@H](O)[C@@H]1O
Description: malachite green phosphate release assay. Format: biochemical, Cicer arietinum. The note with it: Mg2+ (optimum 5 mM; typical assay 3 mM MgCl2), 50 mM Tris-Cl pH 8, 37 °C. The source says:
(§1) malachite green phosphate release assay on CaIMP

Substrate in data set [2]: O=P(O)(O)O[C@@H]1[C@H](O)[C@H](O)[C@@H](O)[C@H](O)[C@H]1O
Put plainly: malachite green phosphate release assay. Format: biochemical, Cicer arietinum. The note with it: Mg2+ (optimum 5 mM; typical assay 3 mM MgCl2), 50 mM Tris-Cl pH 8, 37 °C.
Excerpt: as §1

The source of these data is PMC3871819, “Differentially expressed myo-inositol monophosphatase gene (CaIMP) in chickpea (Cicer arietinum L.) encodes a lithium-sensitive phosphatase enzyme with broad substrate specificity and improves seed germination and seedling growth under abiotic stresses” (Journal of Experimental Botany, 2013).

B1: CaIMP (Cicer arietinum) (protein)
chain: MVDNDSHSEFLASAVEAAHKAGDVIRKAFYQTKHVQHKGTVDLVTETDKACEELIFNHLKELYPTHKFIGEETTAAFGTTELTDDPTWIVDPLDGTTNFVHGFPFVCVSIGLTIGKVPTVGVVYNPIINELFTAIRGQGAFLNGNPIKVSSQTELVSSLLATEAGTKRDKATLDASTDRINSLLYKVRSLRMSGSCALNLCGVACGRLDLFFETGFGGPWDVAGGAVIVREAGGVVFDPSGADFDITAQRVAASNPLLKDAFVDALRQTE
notes: full-length ORF (813 bp, 270 aa, ~30 kDa) in pET-23b NdeI/XhoI, E. coli BL21(DE3)
Broadly, the Km is the substrate concentration at which the rate is half of its maximum. The term Vmax denotes the top rate of the reaction or transport when substrate is in excess. For the protein B1, the Km is 16.7 µM in data set [1] and 25.9 µM in data set [2]. Further, the values for the Vmax in data set [1] and in data set [2] were 5.61 µmol/min/mg and 4.86 µmol/min/mg, respectively.
